Experimental data published in US20090203134A1, “REMEDY FOR NERVE CELL REGENERATION” (Kyoto University, priority 2005, published 2009).

Columns and labels:
[1] = test system: Muller cells; test: Retinal organ culture, BrdU immunostaining of divided cells; format: cell-based, rat; details: 4 days
Protocol: (§1) The retina excluding the pigment epithelium was obtained from a 6-week-old adult DA rat (obtained from Shimizu Laboratory Supplies Co., Ltd. (Kyoto)) and a retinal organ culture was then carried out on a Millicell chamber filter. The retinal organ culture was conducted according to a method described in Methods 2002; 28: 387-395 and Brain Res 2002; 954: 286-293. The culture medium used was 50% Minimum Essential Medium +HEPES (Invitrogen Corporation)/25% Hank's solution (Invitrogen Corporation)/25% inactivated horse serum/200 μM L-glutamine/5.75 mg/ml glucose.
Wnt3a (100 ng/ml; R&D Systems) and BrdU (5ng/ml; SIGMA) were added to the culture medium everyday and a frozen specimen was then prepared after 4 days, followed by investigating the presence or absence of BrdU-positive divided cells by an immunological staining with a BrdU antibody.
Further, an inhibitor of glycogen synthase kinase 3β(GSK-3β), AR-A014418(J, Biol. Chem., Vol, 278, No. 46, p45937-45945, 2003), was added to a culture medium for the retina organ culture and the effect thereof was examined. […] In contrast, the number of BrdU-positive cells in control without the addition of AR-AO14418 was small.

[2] = test system: Muller cells; test: Retinal organ culture, Rhodopsin expression of divided cells (differentiation into retinal nerve cells); format: cell-based, rat; details: 4 day culture with Wnt3a, then 1 week without Wnt3a
Protocol: as §1
Further, after 4 day culture with the addition of Wnt3a, the culture medium was changed, and the culture was then cultured for 1 week without Wnt3a.

In the case of `COc1ccc(CNC(=O)Nc2ncc([N+](=O)[O-])s2)cc1` [AR-A014418, reference compound], the “number of BrdU-positive cells” value ([1]; retina organ culture, 5 μM AR-A014418 together with BrdU, versus control without addition, FIG. 4) is reported as “the number of BrdU-positive cells was increased”.

B1: Wnt3a: Wnt3a protein (R&D Systems), a secretory glycoprotein of the Wnt family (protein, UniProt P56704 19-352, looked up)
Protein Wnt-3a: SYPIWWSLAVGPQYSSLGSQPILCASIPGLVPKQLRFCRNYVEIMPSVAEGIKIGIQECQHQFRGRRWNCTTVHDSLAIFGPVLDKATRESAFVHAIASAGVAFAVTRSCAEGTAAICGCSSRHQGSPGKGWKWGGCSEDIEFGGMVSREFADARENRPDARSAMNRHNNEAGRQAIASHMHLKCKCHGLSGSCEVKTCWWSQPDFRAIGDFLKDKYDSASEMVVEKHRESRGWVETLRPRYTYFKVPTERDLVYYEASPNFCEPNPETGSFGTRDRTCNVSSHGIDGCDLLCCGRGHNARAERRREKCRCVFHWCCYVSCQECTRVYDVHTCK
For B1, the “expression of Rhodopsin (marker of the visual cells) in divided cells” value [2] was “a part of the divided cells express Rhodopsin”, the “BrdU-positive divided cells (immunological staining with a BrdU antibody)” value ([1]; adult DA rat retinal organ culture, Wnt3a 100 ng/ml added everyday, compared with control without Wnt3a, FIG. 1) was “many BrdU-positive divided cells in the retinal inner nuclear layer (INL)” and the “ratio of the divided cells (number of divided cells in INL)” value ([1]; adult DA rat retinal organ culture, Wnt3a 100 ng/ml, FIG. 2) was “dramatic increase in the number of the divided cells in INL”. The “identity of divided cells (glutamine synthetase and BrdU immunological staining)” value ([1]; adult DA rat retinal organ culture, Wnt3a 100 ng/ml, FIG. 3) was “most of these divided cells were identified as glutamine synthetase positive Muller cells”.
